Source: patent US20100184658A1 (published 2010)

Tests used:
Experiment in all cases: cell-based or functional assay
IKBKB (IKK beta) IKK2 = molecular target: T1, IKBKB (IKK beta) IKK2 (human (printed as (h)), UniProt O14920 1-756, limits assumed)
T1 sequence (looked up): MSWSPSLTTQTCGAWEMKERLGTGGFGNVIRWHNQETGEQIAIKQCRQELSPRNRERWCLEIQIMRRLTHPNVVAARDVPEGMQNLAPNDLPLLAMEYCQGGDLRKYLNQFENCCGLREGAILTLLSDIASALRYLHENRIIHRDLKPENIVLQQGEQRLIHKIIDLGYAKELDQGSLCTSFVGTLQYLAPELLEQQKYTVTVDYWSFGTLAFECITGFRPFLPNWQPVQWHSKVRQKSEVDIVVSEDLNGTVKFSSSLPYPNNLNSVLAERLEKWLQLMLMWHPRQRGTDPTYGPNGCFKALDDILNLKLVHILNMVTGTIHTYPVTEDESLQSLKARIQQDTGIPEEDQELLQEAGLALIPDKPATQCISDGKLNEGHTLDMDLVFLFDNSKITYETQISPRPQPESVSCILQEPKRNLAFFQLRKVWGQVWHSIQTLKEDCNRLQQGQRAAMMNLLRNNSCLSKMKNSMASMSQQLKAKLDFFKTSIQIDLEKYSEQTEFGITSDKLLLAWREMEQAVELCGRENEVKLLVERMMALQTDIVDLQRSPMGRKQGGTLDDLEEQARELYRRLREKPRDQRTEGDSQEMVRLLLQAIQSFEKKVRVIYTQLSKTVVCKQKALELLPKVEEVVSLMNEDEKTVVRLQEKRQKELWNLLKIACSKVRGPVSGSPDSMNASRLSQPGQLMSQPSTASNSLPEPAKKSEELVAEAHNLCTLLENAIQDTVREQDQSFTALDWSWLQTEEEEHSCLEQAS

PRKCI (PKC iota) = molecular target: T2, PRKCI (PKC iota) (UniProt P41743 1-596, limits assumed)
T2 sequence (looked up): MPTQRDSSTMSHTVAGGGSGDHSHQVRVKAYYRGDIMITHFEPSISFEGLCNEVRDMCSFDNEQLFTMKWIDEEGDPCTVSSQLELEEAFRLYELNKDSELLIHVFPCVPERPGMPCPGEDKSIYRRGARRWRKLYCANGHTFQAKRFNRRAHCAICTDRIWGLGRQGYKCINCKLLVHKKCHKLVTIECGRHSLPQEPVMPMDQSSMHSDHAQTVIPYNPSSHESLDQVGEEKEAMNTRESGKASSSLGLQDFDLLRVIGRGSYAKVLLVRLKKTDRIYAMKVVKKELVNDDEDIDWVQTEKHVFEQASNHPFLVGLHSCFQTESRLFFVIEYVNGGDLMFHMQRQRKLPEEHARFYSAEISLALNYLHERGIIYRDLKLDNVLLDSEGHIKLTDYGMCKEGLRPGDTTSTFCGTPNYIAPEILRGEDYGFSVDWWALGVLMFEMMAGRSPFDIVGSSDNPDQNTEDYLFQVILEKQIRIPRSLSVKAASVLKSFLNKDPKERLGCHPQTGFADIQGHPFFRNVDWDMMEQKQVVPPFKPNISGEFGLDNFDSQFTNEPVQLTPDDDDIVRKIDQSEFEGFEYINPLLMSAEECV

[1] = molecular target: MAPK9 (JNK2) Mitogen-activated protein kinase 9 (UniProt P45984 1-424, limits assumed)
PRKD1 (PKC mu) = molecular target: T3, PRKD1 (PKC mu) (UniProt Q15139 1-912, limits assumed)
T3 sequence (looked up): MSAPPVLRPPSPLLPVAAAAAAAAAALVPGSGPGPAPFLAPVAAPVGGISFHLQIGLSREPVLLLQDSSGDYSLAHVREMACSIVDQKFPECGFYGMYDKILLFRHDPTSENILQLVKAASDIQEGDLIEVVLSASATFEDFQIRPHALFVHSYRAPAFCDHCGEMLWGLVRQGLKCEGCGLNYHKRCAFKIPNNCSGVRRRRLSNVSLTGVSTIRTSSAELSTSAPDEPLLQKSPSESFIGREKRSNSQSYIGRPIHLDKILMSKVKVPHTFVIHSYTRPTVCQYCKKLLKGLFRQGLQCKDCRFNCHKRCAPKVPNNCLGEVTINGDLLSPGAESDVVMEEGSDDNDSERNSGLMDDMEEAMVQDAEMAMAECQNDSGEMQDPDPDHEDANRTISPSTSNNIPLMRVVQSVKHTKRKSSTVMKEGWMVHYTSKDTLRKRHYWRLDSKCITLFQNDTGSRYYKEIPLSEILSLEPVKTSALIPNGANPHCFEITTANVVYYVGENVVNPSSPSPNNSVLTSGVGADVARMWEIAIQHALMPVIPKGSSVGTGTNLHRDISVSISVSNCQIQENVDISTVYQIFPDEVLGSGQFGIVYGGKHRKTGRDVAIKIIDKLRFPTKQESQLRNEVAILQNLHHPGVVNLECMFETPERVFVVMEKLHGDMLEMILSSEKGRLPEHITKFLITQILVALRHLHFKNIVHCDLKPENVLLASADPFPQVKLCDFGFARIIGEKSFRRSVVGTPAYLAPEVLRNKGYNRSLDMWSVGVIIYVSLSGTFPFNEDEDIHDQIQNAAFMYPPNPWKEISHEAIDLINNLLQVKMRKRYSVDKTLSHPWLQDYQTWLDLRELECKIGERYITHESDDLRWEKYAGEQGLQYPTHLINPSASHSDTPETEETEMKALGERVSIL

MYLK2 (skMLCK) = MYLK2 (skMLCK) (UniProt Q9H1R3 1-596, limits assumed)
Chain of MYLK2 (skMLCK) (Q9H1R3 whole entry): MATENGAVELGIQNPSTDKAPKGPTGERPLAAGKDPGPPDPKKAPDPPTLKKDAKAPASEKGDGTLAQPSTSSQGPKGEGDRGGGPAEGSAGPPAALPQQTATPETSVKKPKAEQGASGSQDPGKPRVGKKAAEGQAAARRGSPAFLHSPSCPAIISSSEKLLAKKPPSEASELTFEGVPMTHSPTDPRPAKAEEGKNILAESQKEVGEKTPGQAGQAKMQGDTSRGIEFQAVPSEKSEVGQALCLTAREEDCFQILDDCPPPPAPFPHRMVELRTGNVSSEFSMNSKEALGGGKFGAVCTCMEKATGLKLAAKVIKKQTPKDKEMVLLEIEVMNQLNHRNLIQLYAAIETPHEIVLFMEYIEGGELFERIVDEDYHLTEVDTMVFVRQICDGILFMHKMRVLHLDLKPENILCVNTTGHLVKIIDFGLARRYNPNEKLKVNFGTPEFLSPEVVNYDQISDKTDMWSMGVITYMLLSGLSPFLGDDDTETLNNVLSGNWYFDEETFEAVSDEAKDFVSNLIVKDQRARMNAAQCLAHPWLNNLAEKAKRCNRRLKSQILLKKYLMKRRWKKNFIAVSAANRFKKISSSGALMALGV

MATK (HYL) = molecular target: T4, MATK (HYL) (UniProt P42679 1-507, limits assumed)
T4 sequence (looked up): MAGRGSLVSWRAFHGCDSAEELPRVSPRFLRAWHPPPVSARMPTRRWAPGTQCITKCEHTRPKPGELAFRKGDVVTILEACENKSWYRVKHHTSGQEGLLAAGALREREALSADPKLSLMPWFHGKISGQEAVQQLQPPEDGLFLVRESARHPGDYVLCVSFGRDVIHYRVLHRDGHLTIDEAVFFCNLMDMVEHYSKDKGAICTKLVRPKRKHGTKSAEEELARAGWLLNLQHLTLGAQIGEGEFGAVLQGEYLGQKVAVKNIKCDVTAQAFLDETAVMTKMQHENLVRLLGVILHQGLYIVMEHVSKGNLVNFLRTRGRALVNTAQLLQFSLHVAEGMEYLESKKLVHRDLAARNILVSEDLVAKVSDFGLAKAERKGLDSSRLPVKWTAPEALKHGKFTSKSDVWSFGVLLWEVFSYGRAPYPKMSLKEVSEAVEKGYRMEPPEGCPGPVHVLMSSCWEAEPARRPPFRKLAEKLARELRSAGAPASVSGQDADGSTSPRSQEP

PHKG1 = PHKG1 (UniProt Q16816 1-387, limits assumed)
Chain of PHKG1 (Q16816 whole entry): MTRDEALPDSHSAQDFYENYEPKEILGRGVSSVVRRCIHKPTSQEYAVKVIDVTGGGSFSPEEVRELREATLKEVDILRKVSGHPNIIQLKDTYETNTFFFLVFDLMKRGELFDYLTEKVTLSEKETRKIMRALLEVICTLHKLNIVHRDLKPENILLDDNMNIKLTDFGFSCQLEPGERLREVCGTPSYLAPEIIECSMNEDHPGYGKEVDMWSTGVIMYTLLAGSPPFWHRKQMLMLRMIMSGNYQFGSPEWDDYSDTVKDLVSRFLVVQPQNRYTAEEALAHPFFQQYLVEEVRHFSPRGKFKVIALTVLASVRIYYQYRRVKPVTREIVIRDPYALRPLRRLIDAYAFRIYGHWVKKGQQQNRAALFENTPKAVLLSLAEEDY
Note: test concentration or dose not given here.

B1: D3 peptide (peptide)
peptide: SGRPPMIVWFNRPFLIAVSHTHGQTILFMAKVINPVGA
% Inhibition mean (IKBKB (IKK beta) IKK2): 41%
% Inhibition mean (PRKCI (PKC iota)): 48.9%
% Inhibition mean [1]: 92.9%
% Inhibition mean (PRKD1 (PKC mu)): 80.6%
% Inhibition mean (MYLK2 (skMLCK)): 64.6%
% Inhibition mean (MATK (HYL)): 55.6%
% Inhibition mean (PHKG1): 54.8%
